Experimental findings from patent US9260500B2, “Peptide and use thereof” (Takeda Pharmaceutical Company Limited, priority 2009, dated 2016) are described below.

Starred links: 1 amine or outer side, 2 acyl side, 3 side chain; linkers in the order of their positions; H or OH if unused. Non-standard residues stand in square brackets, D forms with d. Primed or numbered codes have the meaning given here. *: point of attachment. Ser(Me)″ = O-methylserine, COC[C@H](N[*:1])C(=O)[*:2]; Phe(3-Me) = Cc1cccc(C[C@H](N)C(=O)O)c1; Phe(4-F) = N[C@@H](Cc1ccc(F)cc1)C(=O)O; 1Nal = N[C@@H](Cc1cccc2ccccc12)C(=O)O; 4Pal = N[C@@H](Cc1ccncc1)C(=O)O; Cha = N[C@@H](CC1CCCCC1)C(=O)O; Isobutyryl = CC(C)C(=O)*; Abu = CC[C@H](N)C(=O)O; Aib = CC(C)(N)C(=O)O; Bz = O=C(c1ccccc1)*

Assay [1] has as its target T1, human Y2 receptor (Homo sapiens, UniProt P49146).
T1 construct: expressed in transfected cells; membrane fraction
T1 sequence (P49146 1-381): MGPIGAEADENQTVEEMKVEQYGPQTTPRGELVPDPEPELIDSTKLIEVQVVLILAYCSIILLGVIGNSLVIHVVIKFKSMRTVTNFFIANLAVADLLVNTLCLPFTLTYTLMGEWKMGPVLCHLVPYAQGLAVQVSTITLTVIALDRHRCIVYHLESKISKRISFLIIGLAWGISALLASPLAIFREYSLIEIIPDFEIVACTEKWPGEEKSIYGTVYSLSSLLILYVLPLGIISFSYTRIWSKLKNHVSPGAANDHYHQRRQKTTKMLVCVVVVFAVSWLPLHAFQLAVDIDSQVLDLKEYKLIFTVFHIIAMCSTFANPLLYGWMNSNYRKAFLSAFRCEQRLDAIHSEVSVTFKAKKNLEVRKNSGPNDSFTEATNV
Put plainly: Receptor Binding Assay (RBA) for Human Y2, [125I]-PYY displacement on hY2R/CHO membrane fraction. To be noted: IC50 of test compound/IC50 of PYY(3-36) (PYY(3-36) taken as 1). The protocol: (1) Construction of Expression Plasmid for the Human Y2 Receptor (Y2R) Gene
PCR was performed by a reaction using Pfu DNA polymerase ([…]), with a human brain cDNA (PT3158-1, Clontech) as the template, wherein synthetic DNAs with the following sequences were used as a combination of 5′ and 3′ primers, whereby the human Y2R gene was cloned. Primer 1 was prepared on the basis of base sequence information on the human Y2R gene (Refseq ID No. NM_000910) with the addition of Kozak's consensus sequence. Primer 2 was prepared on the basis of base sequence information on the human Y2R gene.
The PCR product obtained was cloned into pCR4-Blunt-TOPO (Invitrogen), and the plasmid was extracted according to a conventional method (QIAwell 8 Plus, QIAGEN). After confirming the base sequence, the human Y2R gene was re-cloned by a PCR reaction with the plasmid DNA as the template, using Primer 1 as the 5′ primer and Primer 2 as the 3′ primer. The PCR was performed using the Pyrobest DNA polymerase (TaKaRa). The PCR product obtained was re-cloned into pCR-Blunt II-TOPO (Invitrogen), and the plasmid was extracted according to a conventional method (QIAGEN). An Xho I restriction enzyme digestion site and an Spe I restriction enzyme digestion site are present in the cloning site of the pCR-Blunt II-TOPO; a plasmid clone was selected wherein the human Y2R gene was inserted in the orientation such that the Xho I restriction enzyme digestion site was positioned upstream of Primer 1, and the Spe I restriction enzyme digestion site was positioned downstream of Primer 2. After confirming the base sequence, the plasmid clone was digested with the restriction enzymes Xho I and Spe I to yield a DNA fragment. The DNA fragment was inserted into the animal cell expression vector pAKKO-111H (the same plasmid as pAKKO-1.111H described in Biochem. Biophys. Acta, Hinuma, S. et al., 1219, 251-259 (1994)), which was enzymatically digested with Sal I and Spe I, to yield the expression plasmid pAK-hY2R (pAKKO-111H/Y2R).
(2) Test Method: Receptor Binding Assay (RBA) for Human Y2
A human NPY2R (hY2R) stable expression cell line was acquired by transducing the animal cell expression plasmid pAK-hY2R into CHO/dhfr-cells using the CellPhect Transfection kit (Amersham Pharmacia Biotech Co.). First, 240 μl of Buffer A (attached to the CellPhect Transfection kit) was added to 9.6 μg of the plasmid DNA dissolved in 240 μl of distilled water; this mixture was stirred and allowed to stand for 10 minutes, after which 480 μL of Buffer B (attached to the CellPhect Transfection kit) was added, and the mixture was vigorously stirred to form a liposome containing the DNA. 2.5×10^5 or 4×10^5 CHO/dhfr− cells (obtained from ATCC) were seeded to 60 mm petri dishes, and cultured in Ham's F-12 medium (Sigma Co.) containing 10% fetal bovine serum (BioWest Co.) at 37° C. in 5% gaseous carbon dioxide for 1 day, after which 480 μL of the liposome was added drop by drop on to the cells in each petri dish. This was cultured at 37° C. in 5% gaseous carbon dioxide for 6 hours, after which the cells were twice washed with serum-free Ham's F-12 medium; 3 mL of 15% glycerol was added onto the cells in the petri dish and treated for 2 minutes. This was again washed 3 times with serum-free Ham's F-12 medium, after which the cells were cultured in Ham's F-12 medium containing 10% fetal bovine serum at 37° C. in 5% gaseous carbon dioxide. The cells were dispersed by trypsinization and recovered from the petri dishes, and seeded to a 6-well plate at 2.5×10^4 or 4×10^4 cells per well; cultivation was begun in Dulbecco's modified Eagle medium <DMEM> medium (Sigma Co.) containing dialyzed 10% fetal bovine serum (Invitrogen Co.) at 37° C. in 5% gaseous carbon dioxide. Since plasmid-introduced transformant CHO cells grow in the medium, whereas cells without plasmid introduction die gradually, about 20 colonies of transformed CHO cell that had grown 9-13 days after the start of the cultivation were isolated. […]

In assay [2] the target is T1, human Y2 receptor. Kind of assay: Human Y2 Receptor G Protein Binding Assay (GBA), [35S]GTPγS. The assay is classed as biochemical. To be noted: EC50 of test compound/EC50 of PYY(3-36) (PYY3-36 taken as 1), hY2R/CHO membrane fraction. On the procedure:
(3) Test Method: Human Y2 Receptor G Protein Binding Assay (GBA)
The agonist activity of the compound of the present invention against the human Y2 receptor was measured by the method described below.
2 μL of the test compound, serially diluted with DMSO from 100 μM to 1 nM, was dispensed to a 96-well plate, and 100 μL of the membrane fraction, previously diluted with an assay buffer (50 mM Tris, 5 mM MgCl2, 150 mM NaCl, […], 0.03% NaN3, 0.1% BSA, pH 7.4) to 1 μg protein/mL, was dispensed thereto, subsequently, 100 μL of a [^35S]GTPγS (NEG030H, PerkinElmer, previously diluted with the assay buffer to 1 nM) was added, and they were mixed by pipetting. After incubation at room temperature for 120 minutes, the mixture was filtered through the cell harvester FilterMate (PerkinElmer) using the UniFilter-96 GF/C (PerkinElmer), and the filter was washed 3 times with a filtering buffer (50 mM Tris, 5 mM MgCl2, 150 mM NaCl, 0.03% NaN3, 0.05% CHAPS, pH 7.4). Thereafter, UniFilter-96 GF/C was dried in a mechanical drier for 1 hour, 15 μl of the liquid scintillator MicroScint O (PerkinElmer) was added to each well, and a measurement was taken using TopCount (PerkinElmer). The data obtained were analyzed using Prism to calculate the EC50 value. The agonist activity of the test compound was expressed as a ratio to the EC50 value of PYY3-36 taken as 1 (EC50 Ratio: EC50 of test compound/EC50 of PYY(3-36)). The results are shown in the GBA column in Table 5 (Table 5-1-Table 5-10).

In the case of “Isobutanoyl-[Abu26, Gly27, Cha28,36, Aib31]-PYY(25-36) (Isobutyryl-R[Abu]G[Cha]NL[Aib]TRQR[Cha]-NH2; SMILES CC[C@H](NC(=O)[C@H](CCCNC(=N)N)NC(=O)C(C)C)C(=O)NCC(=O)N[C@@H](CC1CCCCC1)C(=O)N[C@@H](CC(N)=O)C(=O)N[C@@H](CC(C)C)C(=O)NC(C)(C)C(=O)N[C@H](C(=O)N[C@@H](CCCNC(=N)N)C(=O)N[C@@H](CCC(N)=O)C(=O)N[C@@H](CCCNC(=N)N)C(=O)N[C@@H](CC1CCCCC1)C(N)=O)[C@@H](C)O) [compound No. 95]”, the “RBA IC50 Ratio” value with human Y2 receptor [1] is 70. Besides, in the assay with human Y2 receptor [2], the “GBA EC50 Ratio” value is 49.
In the case of “Ac-[D-Pro24, Pya(4)26, Cha27,36, Aib28,31, Lys30]-PYY(24-36) (Ac-[dP]R[4Pal][Cha][Aib]NK[Aib]TRQR[Cha]-NH2; SMILES CC(=O)N1CCC[C@@H]1C(=O)N[C@@H](CCCNC(=N)N)C(=O)N[C@@H](Cc1ccncc1)C(=O)N[C@@H](CC1CCCCC1)C(=O)NC(C)(C)C(=O)N[C@@H](CC(N)=O)C(=O)N[C@@H](CCCCN)C(=O)NC(C)(C)C(=O)N[C@H](C(=O)N[C@@H](CCCNC(=N)N)C(=O)N[C@@H](CCC(N)=O)C(=O)N[C@@H](CCCNC(=N)N)C(=O)N[C@@H](CC1CCCCC1)C(N)=O)[C@@H](C)O) [compound No. 251]”, in the assay with human Y2 receptor [1], the “RBA IC50 Ratio” value is listed as 0.68. Besides, the “GBA EC50 Ratio” value with human Y2 receptor [2] is recorded as 0.56.
With “Ac-[D-Pro24, Pya(4)26, Nal(1)27, Aib28,31, Lys30, Cha36]-PYY(23-36) (Ac-S[dP]R[4Pal][1Nal][Aib]NK[Aib]TRQR[Cha]-NH2; SMILES CC(=O)N[C@@H](CO)C(=O)N1CCC[C@@H]1C(=O)N[C@@H](CCCNC(=N)N)C(=O)N[C@@H](Cc1ccncc1)C(=O)N[C@@H](Cc1cccc2ccccc12)C(=O)NC(C)(C)C(=O)N[C@@H](CC(N)=O)C(=O)N[C@@H](CCCCN)C(=O)NC(C)(C)C(=O)N[C@H](C(=O)N[C@@H](CCCNC(=N)N)C(=O)N[C@@H](CCC(N)=O)C(=O)N[C@@H](CCCNC(=N)N)C(=O)N[C@@H](CC1CCCCC1)C(N)=O)[C@@H](C)O) [compound No. 306]”, the “RBA IC50 Ratio” value with human Y2 receptor [1] was determined as 2.9. The “GBA EC50 Ratio” value with human Y2 receptor [2] came to 1.7.
Regarding “Benzoyl-[Ser(Me)26, Cha27,28,36, Aib31]-PYY(25-36) (Bz-R[Ser(Me)″][Cha][Cha]NL[Aib]TRQR[Cha]-NH2; SMILES COC[C@H](NC(=O)[C@H](CCCNC(=N)N)NC(=O)c1ccccc1)C(=O)N[C@@H](CC1CCCCC1)C(=O)N[C@@H](CC1CCCCC1)C(=O)N[C@@H](CC(N)=O)C(=O)N[C@@H](CC(C)C)C(=O)NC(C)(C)C(=O)N[C@H](C(=O)N[C@@H](CCCNC(=N)N)C(=O)N[C@@H](CCC(N)=O)C(=O)N[C@@H](CCCNC(=N)N)C(=O)N[C@@H](CC1CCCCC1)C(N)=O)[C@@H](C)O) [compound No. 98]”, the “RBA IC50 Ratio” value with human Y2 receptor [1] came out at 18. Further, the “GBA EC50 Ratio” value with human Y2 receptor [2] was determined as 8.7.
Consider “Ac-[D-Pro24, Pya(4)26, Cha27, Aib28,31, Lys30, Phe(3Me)36]-PYY(23-36) (Ac-S[dP]R[4Pal][Cha][Aib]NK[Aib]TRQR[Phe(3-Me)]-NH2; SMILES CC(=O)N[C@@H](CO)C(=O)N1CCC[C@@H]1C(=O)N[C@@H](CCCNC(=N)N)C(=O)N[C@@H](Cc1ccncc1)C(=O)N[C@@H](CC1CCCCC1)C(=O)NC(C)(C)C(=O)N[C@@H](CC(N)=O)C(=O)N[C@@H](CCCCN)C(=O)NC(C)(C)C(=O)N[C@H](C(=O)N[C@@H](CCCNC(=N)N)C(=O)N[C@@H](CCC(N)=O)C(=O)N[C@@H](CCCNC(=N)N)C(=O)N[C@@H](Cc1cccc(C)c1)C(N)=O)[C@@H](C)O) [compound No. 260]”, for which the “RBA IC50 Ratio” value with human Y2 receptor [1] stood at 0.91. For the same substance, the “GBA EC50 Ratio” value in the assay with human Y2 receptor [2] worked out at 1.2.
With “Isobutanoyl-[Abu26, Cha27,36, Phe(4F)28, Aib31]-PYY(25-36) (Isobutyryl-R[Abu][Cha][Phe(4-F)]NL[Aib]TRQR[Cha]-NH2; SMILES CC[C@H](NC(=O)[C@H](CCCNC(=N)N)NC(=O)C(C)C)C(=O)N[C@@H](CC1CCCCC1)C(=O)N[C@@H](Cc1ccc(F)cc1)C(=O)N[C@@H](CC(N)=O)C(=O)N[C@@H](CC(C)C)C(=O)NC(C)(C)C(=O)N[C@H](C(=O)N[C@@H](CCCNC(=N)N)C(=O)N[C@@H](CCC(N)=O)C(=O)N[C@@H](CCCNC(=N)N)C(=O)N[C@@H](CC1CCCCC1)C(N)=O)[C@@H](C)O) [compound No. 79]”, the “RBA IC50 Ratio” value in the assay with human Y2 receptor [1] came out at 23. Also, the “GBA EC50 Ratio” value in the assay with human Y2 receptor [2] is reported as 20.
Turning to “Ac-[D-Pro24, Pya(4)26, Cha27,36, Aib28,31, Arg30]-PYY(23-36) (Ac-S[dP]R[4Pal][Cha][Aib]NR[Aib]TRQR[Cha]-NH2; SMILES CC(=O)N[C@@H](CO)C(=O)N1CCC[C@@H]1C(=O)N[C@@H](CCCNC(=N)N)C(=O)N[C@@H](Cc1ccncc1)C(=O)N[C@@H](CC1CCCCC1)C(=O)NC(C)(C)C(=O)N[C@@H](CC(N)=O)C(=O)N[C@@H](CCCNC(=N)N)C(=O)NC(C)(C)C(=O)N[C@H](C(=O)N[C@@H](CCCNC(=N)N)C(=O)N[C@@H](CCC(N)=O)C(=O)N[C@@H](CCCNC(=N)N)C(=O)N[C@@H](CC1CCCCC1)C(N)=O)[C@@H](C)O) [compound No. 263]”, the “RBA IC50 Ratio” value with human Y2 receptor [1] was found to be 1.1. The “GBA EC50 Ratio” value in the assay with human Y2 receptor [2] is on record as 1.8.
